Assay results taken from FireProtDB (doi:10.1002/pro.5560061014).

Conditions: Bacillus amyloliquefaciens, pH 7.4, Thermal, DSC, Sodium phosphate 50 mM, reversible: yes, whole UniProt chain shown

B1: Barstar wild type, P11540 (protein)
chain: MKKAVINGEQIRSISDLHQTLKKELALPEYYGENLDALWDCLTGWVEYPLVLEWRQFEQSKQLTENGAESVLQVFREAKAEGCDITIILS
heat capacity change of unfolding (25 °C): 1.27 kcal/mol/K
unfolding free energy (25 °C): 23.5 kJ/mol
Tm: 72.8 °C
heat capacity change of unfolding: 1.27 kcal/mol/K
unfolding enthalpy (calorimetric): 303 kJ/mol
